This note sets out measurements from IntAct's records for PubMed 18930710.

To fix the notation:
B1: Ras-related protein Rap-2a (Homo sapiens), P10114 (parent)
chain: MREYKVVVLGSGGVGKSALTVQFVTGTFIEKYDPTIEDFYRKEIEVDSSPSVLEILDTAGTEQFASMRDLYIKNGQGFILVYSLVNQQSFQDIKPMRDQIIRVKRYEKVPVILVGNKVDLESEREVSSSEGRALAEEWGCPFMETSAKSKTMVDELFAEIVRQMNYAAQPDKDDPCCSACNIQ

Variants of B1 are the subject of the first assay. To be noted: with mink1_human MINK1, Q8N4C8.
Chain of mink1_human MINK1, Q8N4C8 (Q8N4C8 whole entry, looked up): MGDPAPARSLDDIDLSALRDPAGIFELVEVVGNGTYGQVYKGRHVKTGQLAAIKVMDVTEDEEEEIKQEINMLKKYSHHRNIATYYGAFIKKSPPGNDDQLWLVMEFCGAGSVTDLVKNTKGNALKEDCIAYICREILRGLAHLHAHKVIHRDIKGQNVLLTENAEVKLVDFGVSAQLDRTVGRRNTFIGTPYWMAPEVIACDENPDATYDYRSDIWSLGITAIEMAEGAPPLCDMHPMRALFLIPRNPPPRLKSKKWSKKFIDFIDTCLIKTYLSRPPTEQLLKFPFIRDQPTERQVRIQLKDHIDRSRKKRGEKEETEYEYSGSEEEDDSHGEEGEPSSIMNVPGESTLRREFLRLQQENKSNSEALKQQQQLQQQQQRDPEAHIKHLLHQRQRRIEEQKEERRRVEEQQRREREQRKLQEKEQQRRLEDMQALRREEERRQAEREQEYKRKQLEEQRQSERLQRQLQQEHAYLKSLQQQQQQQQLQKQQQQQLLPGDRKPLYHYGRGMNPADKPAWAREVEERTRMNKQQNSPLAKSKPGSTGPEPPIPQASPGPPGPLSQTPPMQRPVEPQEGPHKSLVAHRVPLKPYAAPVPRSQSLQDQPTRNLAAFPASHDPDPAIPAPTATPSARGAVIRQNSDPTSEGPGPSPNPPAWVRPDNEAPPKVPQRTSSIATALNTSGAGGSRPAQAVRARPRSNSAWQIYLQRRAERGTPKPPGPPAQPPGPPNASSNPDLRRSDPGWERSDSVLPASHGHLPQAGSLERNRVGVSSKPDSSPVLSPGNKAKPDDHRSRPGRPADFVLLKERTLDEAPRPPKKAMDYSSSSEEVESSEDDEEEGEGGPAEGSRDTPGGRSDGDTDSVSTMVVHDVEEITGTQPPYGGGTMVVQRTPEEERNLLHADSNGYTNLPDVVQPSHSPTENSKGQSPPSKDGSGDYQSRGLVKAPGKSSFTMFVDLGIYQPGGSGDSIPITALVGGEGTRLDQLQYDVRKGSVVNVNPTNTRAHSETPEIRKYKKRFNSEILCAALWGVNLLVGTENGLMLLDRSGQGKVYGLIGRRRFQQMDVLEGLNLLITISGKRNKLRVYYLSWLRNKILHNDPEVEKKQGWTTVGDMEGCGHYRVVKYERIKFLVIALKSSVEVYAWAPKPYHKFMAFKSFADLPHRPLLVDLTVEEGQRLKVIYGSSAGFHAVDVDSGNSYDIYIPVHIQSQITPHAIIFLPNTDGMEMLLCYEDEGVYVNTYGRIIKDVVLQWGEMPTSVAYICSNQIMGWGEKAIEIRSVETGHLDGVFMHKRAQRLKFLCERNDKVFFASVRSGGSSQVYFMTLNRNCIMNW
Consider S17N, for which the “effect of a mutation on the interaction” value was “disrupting interaction”.

As to F39S, the “effect of a mutation on the interaction” value is given as “disrupting interaction”.

The next assay covers variants of B1. To be noted: with mink1_mouse Mink1, Q9JM52.
Chain of mink1_mouse Mink1, Q9JM52 (Q9JM52 whole entry): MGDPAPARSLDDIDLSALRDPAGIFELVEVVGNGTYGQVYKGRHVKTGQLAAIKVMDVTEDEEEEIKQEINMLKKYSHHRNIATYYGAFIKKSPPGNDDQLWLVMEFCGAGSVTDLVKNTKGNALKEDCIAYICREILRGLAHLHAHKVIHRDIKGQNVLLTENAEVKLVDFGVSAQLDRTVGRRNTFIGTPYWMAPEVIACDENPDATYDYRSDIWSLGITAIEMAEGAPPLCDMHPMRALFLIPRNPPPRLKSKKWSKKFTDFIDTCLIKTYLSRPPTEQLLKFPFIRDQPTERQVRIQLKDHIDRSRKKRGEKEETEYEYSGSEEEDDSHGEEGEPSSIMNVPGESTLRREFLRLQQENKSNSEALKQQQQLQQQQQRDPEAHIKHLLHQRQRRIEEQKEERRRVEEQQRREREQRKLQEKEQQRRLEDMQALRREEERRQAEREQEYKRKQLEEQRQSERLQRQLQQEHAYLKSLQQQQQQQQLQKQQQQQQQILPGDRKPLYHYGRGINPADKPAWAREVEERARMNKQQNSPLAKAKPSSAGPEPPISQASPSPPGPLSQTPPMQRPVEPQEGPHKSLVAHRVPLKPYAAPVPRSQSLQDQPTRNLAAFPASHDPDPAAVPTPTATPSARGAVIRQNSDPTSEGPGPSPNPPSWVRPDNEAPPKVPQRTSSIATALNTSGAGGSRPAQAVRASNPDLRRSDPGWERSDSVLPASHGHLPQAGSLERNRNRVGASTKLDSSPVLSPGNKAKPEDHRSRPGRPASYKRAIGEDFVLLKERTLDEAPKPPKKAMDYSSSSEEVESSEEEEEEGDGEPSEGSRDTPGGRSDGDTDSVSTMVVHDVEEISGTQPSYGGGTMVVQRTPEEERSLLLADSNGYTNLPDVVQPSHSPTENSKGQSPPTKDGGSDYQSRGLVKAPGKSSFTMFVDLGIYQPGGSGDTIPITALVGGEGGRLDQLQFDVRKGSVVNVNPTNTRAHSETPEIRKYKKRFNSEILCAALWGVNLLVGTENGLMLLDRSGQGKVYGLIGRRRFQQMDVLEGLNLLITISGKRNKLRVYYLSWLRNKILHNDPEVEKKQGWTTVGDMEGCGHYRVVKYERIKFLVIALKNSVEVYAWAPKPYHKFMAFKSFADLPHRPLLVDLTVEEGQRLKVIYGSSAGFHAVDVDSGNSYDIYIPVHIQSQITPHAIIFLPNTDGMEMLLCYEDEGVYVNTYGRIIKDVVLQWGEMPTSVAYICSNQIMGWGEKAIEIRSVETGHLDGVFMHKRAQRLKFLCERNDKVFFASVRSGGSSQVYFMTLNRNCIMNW
Regarding F39S, the “effect of a mutation on the interaction” value was “decreasing interaction”.
